According to paper PMC9974832:
Values joined by “and” are separate entries in the source; they are usually repeats but may differ in a detail not shown here. Identical values can stand only once.

Experiments:
[1] = molecular target: pyruvate kinase (PK) M2 (PKM2) (mouse) (mouse (endogenous in isolated glomeruli)) (UniProt P52480); assay: cross-linking; lysates of mouse glomeruli or HRMCs (sodium phosphate buffer pH 7.3, 0.5% Triton X-100), 0.01% glutaraldehyde 5 min 37°C, stopped with 50 mM Tris-Cl pH 8.0; 10% SDS-PAGE, blot with anti-PKM2; samples from db/m, db/db, AAV-shARAP1 mice; NG/HG, ARAP1 shRNA, ARAP1 overexpression, AG1478 in cells
[2] = molecular target: pyruvate kinase (PK) M2 (PKM2) (human (endogenous in HRMCs)) (UniProt P14618); assay: as above

Chain of pyruvate kinase (PK) M2 (PKM2) (mouse), P52480 1-531 (enzyme; other documents disagree on this pair) (P52480 whole entry): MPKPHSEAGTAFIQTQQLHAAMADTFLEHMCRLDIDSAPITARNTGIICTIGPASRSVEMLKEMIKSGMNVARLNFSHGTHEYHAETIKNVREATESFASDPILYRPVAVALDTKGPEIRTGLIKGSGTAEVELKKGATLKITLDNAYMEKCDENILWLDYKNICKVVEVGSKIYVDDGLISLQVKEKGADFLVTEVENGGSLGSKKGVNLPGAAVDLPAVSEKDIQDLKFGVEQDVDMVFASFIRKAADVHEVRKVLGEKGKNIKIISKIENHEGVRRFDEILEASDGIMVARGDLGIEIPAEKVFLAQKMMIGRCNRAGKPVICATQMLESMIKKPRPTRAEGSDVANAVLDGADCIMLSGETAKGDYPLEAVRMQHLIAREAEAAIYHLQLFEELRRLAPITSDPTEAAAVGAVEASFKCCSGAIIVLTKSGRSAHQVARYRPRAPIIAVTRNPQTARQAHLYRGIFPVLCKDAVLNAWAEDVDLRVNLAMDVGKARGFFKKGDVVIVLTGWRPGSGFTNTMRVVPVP
Chain of pyruvate kinase (PK) M2 (PKM2), P14618 1-531 (enzyme; other documents disagree on this pair) (P14618 whole entry): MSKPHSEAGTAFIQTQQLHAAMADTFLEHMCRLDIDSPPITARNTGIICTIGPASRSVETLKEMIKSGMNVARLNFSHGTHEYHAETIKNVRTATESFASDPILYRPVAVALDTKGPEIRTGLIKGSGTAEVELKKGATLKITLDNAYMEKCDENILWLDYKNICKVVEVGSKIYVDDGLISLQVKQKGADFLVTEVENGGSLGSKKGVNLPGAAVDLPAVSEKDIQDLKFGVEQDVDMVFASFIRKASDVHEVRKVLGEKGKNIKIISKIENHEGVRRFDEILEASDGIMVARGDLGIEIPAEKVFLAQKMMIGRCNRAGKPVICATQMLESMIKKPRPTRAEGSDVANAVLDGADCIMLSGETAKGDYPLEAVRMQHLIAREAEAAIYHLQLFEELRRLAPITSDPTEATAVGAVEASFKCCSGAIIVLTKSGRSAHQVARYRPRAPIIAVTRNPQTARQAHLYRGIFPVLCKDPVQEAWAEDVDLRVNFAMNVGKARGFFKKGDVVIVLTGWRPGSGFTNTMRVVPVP

Row | stoichiometry N [1] | stoichiometry N [2] | Substance
1 | 2 and 4 |  | pyruvate kinase (PK) M2 (PKM2) (mouse), P52480 1-531 (enzyme; other documents disagree on this pair)
2 |  | 2 | pyruvate kinase (PK) M2 (PKM2), P14618 1-531 (enzyme; other documents disagree on this pair)
